Kd data for one substance are collected here from US20120270800A1.

The target in this experiment is KIX. Description: fluorescence polarization.

As a reminder, the Kd is the concentration at which binding is half-saturated. The low end stands for higher affinity, the high end for lower affinity. In turn, MLL WT showed a Kd of 89 nM.
